Results on one molecule are retold here after publication PMC12809078 (2025).

In the assay the target is CtBP2_(31-364)-StrepI (human, UniProt P56545 31-364). In words: ITC.

The Kd is the constant that tells how readily two partners part at equilibrium. Read a low Kd as tighter binding. Turning to NKEGDTAWDLTPE [G9a peptide encompassing residues 881 to 893], the Kd was found to be 7.2 µM.
